Experimental data from patent US20240240209A1, “SYNTHESIS OF ENANTIOPURE CIS-A-IRONE FROM A RENEWABLE CARBON SOURCE” (Agency for Science, Technology and Research, priority 2021, published 2024).

B1: Q11W (protein)
chain: MPQEARTPQQWVTADEVGDWYDKFGEVYHLTLGESVHCGLWFPPDAPVPQDMELVTMSSQAQDRFTDYLIETLDPKAGQHLLDIGCGTGRPALKAARQRGIAVTGVAVSKEQIAAANRLAAGHGLTERLTFEVADAMRLPYEDESFDCAWAIESLDHMDRAKALGEAWRVLKPGGDLLVAEEVVTEELTEPETALFETLFALNVPPRLGEFFDIVSGAGFHTLSLKDLSADLAMTMNVFALGVYSRRAEFTERFGAEFVDGLLAGLGSAQETVIRKTRFFMATLRKPAV
modifications: Modified from pMT1
B2: V12K (protein)
chain: MPQEARTPQQQKTADEVGDWYDKFGEVYHLTLGESVHCGLWFPPDAPVPQDMELVTMSSQAQDRFTDYLIETLDPKAGQHLLDIGCGTGRPALKAARQRGIAVTGVAVSKEQIAAANRLAAGHGLTERLTFEVADAMRLPYEDESFDCAWAIESLDHMDRAKALGEAWRVLKPGGDLLVAEEVVTEELTEPETALFETLFALNVPPRLGEFFDIVSGAGFHTLSLKDLSADLAMTMNVFALGVYSRRAEFTERFGAEFVDGLLAGLGSAQETVIRKTRFFMATLRKPAV
modifications: Modified from pMT1
B3: V12A (protein)
chain: MPQEARTPQQQATADEVGDWYDKFGEVYHLTLGESVHCGLWFPPDAPVPQDMELVTMSSQAQDRFTDYLIETLDPKAGQHLLDIGCGTGRPALKAARQRGIAVTGVAVSKEQIAAANRLAAGHGLTERLTFEVADAMRLPYEDESFDCAWAIESLDHMDRAKALGEAWRVLKPGGDLLVAEEVVTEELTEPETALFETLFALNVPPRLGEFFDIVSGAGFHTLSLKDLSADLAMTMNVFALGVYSRRAEFTERFGAEFVDGLLAGLGSAQETVIRKTRFFMATLRKPAV
modifications: Modified from pMT1
B4: P191L (protein)
chain: MPQEARTPQQQVTADEVGDWYDKFGEVYHLTLGESVHCGLWFPPDAPVPQDMELVTMSSQAQDRFTDYLIETLDPKAGQHLLDIGCGTGRPALKAARQRGIAVTGVAVSKEQIAAANRLAAGHGLTERLTFEVADAMRLPYEDESFDCAWAIESLDHMDRAKALGEAWRVLKPGGDLLVAEEVVTEELTELETALFETLFALNVPPRLGEFFDIVSGAGFHTLSLKDLSADLAMTMNVFALGVYSRRAEFTERFGAEFVDGLLAGLGSAQETVIRKTRFFMATLRKPAV
modifications: Modified from pMT1
B5: T126E (protein)
chain: MPQEARTPQQQVTADEVGDWYDKFGEVYHLTLGESVHCGLWFPPDAPVPQDMELVTMSSQAQDRFTDYLIETLDPKAGQHLLDIGCGTGRPALKAARQRGIAVTGVAVSKEQIAAANRLAAGHGLEERLTFEVADAMRLPYEDESFDCAWAIESLDHMDRAKALGEAWRVLKPGGDLLVAEEVVTEELTEPETALFETLFALNVPPRLGEFFDIVSGAGFHTLSLKDLSADLAMTMNVFALGVYSRRAEFTERFGAEFVDGLLAGLGSAQETVIRKTRFFMATLRKPAV
modifications: Modified from pMT1
B6: E190P, G122S (protein)
chain: MPQEARTPQQQVTADEVGDWYDKFGEVYHLTLGESVHCGLWFPPDAPVPQDMELVTMSSQAQDRFTDYLIETLDPKAGQHLLDIGCGTGRPALKAARQRGIAVTGVAVSKEQIAAANRLAASHGLTERLTFEVADAMRLPYEDESFDCAWAIESLDHMDRAKALGEAWRVLKPGGDLLVAEEVVTEELTPPETALFETLFALNVPPRLGEFFDIVSGAGFHTLSLKDLSADLAMTMNVFALGVYSRRAEFTERFGAEFVDGLLAGLGSAQETVIRKTRFFMATLRKPAV
B7: P191I (protein)
chain: MPQEARTPQQQVTADEVGDWYDKFGEVYHLTLGESVHCGLWFPPDAPVPQDMELVTMSSQAQDRFTDYLIETLDPKAGQHLLDIGCGTGRPALKAARQRGIAVTGVAVSKEQIAAANRLAAGHGLTERLTFEVADAMRLPYEDESFDCAWAIESLDHMDRAKALGEAWRVLKPGGDLLVAEEVVTEELTEIETALFETLFALNVPPRLGEFFDIVSGAGFHTLSLKDLSADLAMTMNVFALGVYSRRAEFTERFGAEFVDGLLAGLGSAQETVIRKTRFFMATLRKPAV
modifications: Modified from pMT1
B8: P191Y (protein)
chain: MPQEARTPQQQVTADEVGDWYDKFGEVYHLTLGESVHCGLWFPPDAPVPQDMELVTMSSQAQDRFTDYLIETLDPKAGQHLLDIGCGTGRPALKAARQRGIAVTGVAVSKEQIAAANRLAAGHGLTERLTFEVADAMRLPYEDESFDCAWAIESLDHMDRAKALGEAWRVLKPGGDLLVAEEVVTEELTEYETALFETLFALNVPPRLGEFFDIVSGAGFHTLSLKDLSADLAMTMNVFALGVYSRRAEFTERFGAEFVDGLLAGLGSAQETVIRKTRFFMATLRKPAV
modifications: Modified from pMT1
B9: T126S (protein)
chain: MPQEARTPQQQVTADEVGDWYDKFGEVYHLTLGESVHCGLWFPPDAPVPQDMELVTMSSQAQDRFTDYLIETLDPKAGQHLLDIGCGTGRPALKAARQRGIAVTGVAVSKEQIAAANRLAAGHGLSERLTFEVADAMRLPYEDESFDCAWAIESLDHMDRAKALGEAWRVLKPGGDLLVAEEVVTEELTEPETALFETLFALNVPPRLGEFFDIVSGAGFHTLSLKDLSADLAMTMNVFALGVYSRRAEFTERFGAEFVDGLLAGLGSAQETVIRKTRFFMATLRKPAV
modifications: Modified from pMT1
B10: V12G (protein)
chain: MPQEARTPQQQGTADEVGDWYDKFGEVYHLTLGESVHCGLWFPPDAPVPQDMELVTMSSQAQDRFTDYLIETLDPKAGQHLLDIGCGTGRPALKAARQRGIAVTGVAVSKEQIAAANRLAAGHGLTERLTFEVADAMRLPYEDESFDCAWAIESLDHMDRAKALGEAWRVLKPGGDLLVAEEVVTEELTEPETALFETLFALNVPPRLGEFFDIVSGAGFHTLSLKDLSADLAMTMNVFALGVYSRRAEFTERFGAEFVDGLLAGLGSAQETVIRKTRFFMATLRKPAV
modifications: Modified from pMT1
B11: H123Q (protein)
chain: MPQEARTPQQQVTADEVGDWYDKFGEVYHLTLGESVHCGLWFPPDAPVPQDMELVTMSSQAQDRFTDYLIETLDPKAGQHLLDIGCGTGRPALKAARQRGIAVTGVAVSKEQIAAANRLAAGQGLTERLTFEVADAMRLPYEDESFDCAWAIESLDHMDRAKALGEAWRVLKPGGDLLVAEEVVTEELTEPETALFETLFALNVPPRLGEFFDIVSGAGFHTLSLKDLSADLAMTMNVFALGVYSRRAEFTERFGAEFVDGLLAGLGSAQETVIRKTRFFMATLRKPAV
modifications: Modified from pMT1
B12: H123S (protein)
chain: MPQEARTPQQQVTADEVGDWYDKFGEVYHLTLGESVHCGLWFPPDAPVPQDMELVTMSSQAQDRFTDYLIETLDPKAGQHLLDIGCGTGRPALKAARQRGIAVTGVAVSKEQIAAANRLAAGSGLTERLTFEVADAMRLPYEDESFDCAWAIESLDHMDRAKALGEAWRVLKPGGDLLVAEEVVTEELTEPETALFETLFALNVPPRLGEFFDIVSGAGFHTLSLKDLSADLAMTMNVFALGVYSRRAEFTERFGAEFVDGLLAGLGSAQETVIRKTRFFMATLRKPAV
modifications: Modified from pMT1

Assay: In-vivo cis-α-irone production screening of pMT7 and pMT12 mutants
Assay type: cell-based, Escherichia coli
Conditions: mutations made to pMT12; normalized to pMT12 (=1)
Excerpt: Q60 was identified as another possible mutation site.
FIGS. 24a and 24b show the in-vivo and in-vitro cis-α-irone production of other possible single mutations to pMT12. The in-vitro results in FIG. 24b validate the mutations and in-vivo results in FIG. 24a. The mutations in FIG. 24 include Q11H (SEQ ID No. 23), V12R (SEQ ID No. 24), A95C (SEQ ID No. 25), H123Q (SEQ ID No. 26), E127T (SEQ ID No. 27), M137T (SEQ ID No. 28), D176V (SEQ ID No. 29), D176Y (SEQ ID No. 30). P191S (SEQ ID No. 31), P191V (SEQ ID No. 32), F212L (SEQ ID No. 33), S268H (SEQ ID No. 34), AND T272A (SEQ ID No. 35). The screening results in FIGS. 24 and 25 are semi-quantitative to identify beneficial mutants that give greater than one-fold change of irone production as compared to pMT12.
FIGS. 25a to 25c (and Table 4) show the in-vivo testing results of other possible mutations that may be made to pMT12 to improve its in-vivo production of cis-α-irone. FIGS. 25a to 25c each include two dotted lines to account for a 10% error bar to show the normalized fold change of 0.9 and 1.1.
The four plasmids were transformed into E. coli BL21 (DE3), ΔaroA, ΔaroB, ΔaroC, ΔserC or E. coli BL21 (DE3), ΔaroA, ΔaroB, ΔaroC, ΔserC, ΔmetJ strains and plated on Agar plate containing LB media (10 g, tryptone. 5 g, yeast extract. 10 g, NaCl) supplemented with appropriate antibiotics (100 mg/L ampicillin, 34 mg/L chloramphenicol, 50 mg/L kanamycin, and 100 mg/L spectinomycin). One colony was picked and inoculate into LB media with antibiotics. 1% of overnight culture was inoculated into 1 ml fresh auto-inducing chemically defined media. The chemical media contains carbon source solution: 0.5 g/L glucose, 10 g/L glycerol; inducer: 30 mM lactose and base media: 2 g/L ammonium sulfate, 4.2 g/L KH2PO4, 11.24 g/L K2HPO4, 1.7 g/L citric acid, 0.5 g/L MgSO4, and 10 mL/L trace element solution. The trace element solution (100×) contained 0.25 g/L CoCl2·6H2O, 1.5 g/L MnSO4·4H2O, 0.15 g/L CuSO4·2H2O, 0.3 g/L H3BO3, 0.25 g/L Na2MoO4·2H2O, 0.8 g/L Zn(CH3COO)2, 5 g/L Fe(III) citrate, and 0.84 g/L ethylenediaminetetra-acetic acid (EDTA) at pH 8.0. The culture was grown at 28° C. for 3 days and the products were extracted with 1 ml hexane for GCMS analysis. An example of a fed-batch process for α-ionone Is briefly described, overnight culture was inoculated into 2 L chemical media comprising the base media and 5 g/L glucose, at 37° C. and 30% DO. pH was controlled at 7 with base solution (14% ammonia and 0.5 M NaOH). Feed media (500 g/L glucose and 5 g/L MgSO4) was added into bioreactor once OD600 reached 5, at a rate of 7.15-25.75 g/h glucose for about 4-5 h until OD600 reached ˜30-40. Subsequently, 0.1 mM IPTG was added to induce the production, and feeding rate was kept at a constant rate of 10 g/h glucose, and the temperature was reduced to 30° C. DO was adjusted to 2% or 10%. Feeding was stopped at 113 h when 2 L feeding media was finished, but the culture was further incubated for 24 h. To capture the evaporated products, the exhaust was connected to 25 ml sunflower oil.

Row | Molecule | Fold change in in-vivo cis-α-irone production
1 | B1 | 0.90
2 | B2 | 1.00
3 | B3 | 0.97
4 | B4 | 1.12
5 | B5 | 0.88
6 | B6 | 1.02
7 | B7 | 1.31
8 | B8 | 1.29
9 | B9 | 0.96
10 | B10 | 0.97
11 | B11 | 0.87
12 | B12 | 0.84
